Data taken from article PMC9361823.

Columns and labels:
[1] = target: α3β3-type oxygenase component of cumene dioxygenase (CumDO-O), wild type (Pseudomonas fluorescens IP01) (UniProt Q51743)
[2] = target: CumDO-O α1K117A β1R65A (Pseudomonas fluorescens IP01) (UniProt Q51743)
[3] = target: CumDO-O α1K141A β2W100A (Pseudomonas fluorescens IP01) (UniProt Q51743)
[4] = target: CumDO-O α1K141A β1R65A (Pseudomonas fluorescens IP01) (UniProt Q51743)
[5] = target: CumDO-O α1K117A α1K141A (Pseudomonas fluorescens IP01) (UniProt Q51743)
[6] = target: CumDO-O α1K117A β2W100A (Pseudomonas fluorescens IP01) (UniProt Q51743)
[7] = target: CumDO-O β1R65A β2W100A (Pseudomonas fluorescens IP01) (UniProt Q51743)
[8] = target: CumDO-O β1R65A (Pseudomonas fluorescens IP01) (UniProt Q51743)
[9] = target: CumDO-O α1K117A (Pseudomonas fluorescens IP01) (UniProt Q51743)

Chain of Rieske-type ferredoxin of cumene dioxygenase (CumDO-F) (Q51746 entry or part of it): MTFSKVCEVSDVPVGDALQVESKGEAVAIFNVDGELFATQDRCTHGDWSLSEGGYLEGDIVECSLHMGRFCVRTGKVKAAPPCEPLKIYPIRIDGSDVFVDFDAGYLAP

reduction efficiency of the Rieske cluster of CumDO-O by CumDO-F (initial rate of decrease of A457; purified CumDO-R, CumDO-F, CumDO-O and NADH) [1]: 100% | reduction efficiency by CumDO-F relative to WT CumDO-O (A457) [2]: < 20% | reduction efficiency by CumDO-F relative to WT CumDO-O (A457) [3]: 69% | reduction efficiency by CumDO-F relative to WT CumDO-O (A457) [4]: < 20% | reduction efficiency by CumDO-F relative to WT CumDO-O (A457) [5]: < 20% | reduction efficiency by CumDO-F relative to WT CumDO-O (A457) [6]: < 20% | reduction efficiency by CumDO-F relative to WT CumDO-O (A457) [7]: < 20% | reduction efficiency by CumDO-F relative to WT CumDO-O (A457) [8]: 46% | reduction efficiency by CumDO-F relative to WT CumDO-O (A457) [9]: 21%
Substance: Rieske-type ferredoxin of cumene dioxygenase (CumDO-F) (from UniProt Q51746 1-109) (natural protein)
